Measurements taken from US6835382B2, “Ii peptide therapeutics to enhance antigen presentation” (University of Massachusetts, priority 1996, dated 2004).
Non-standard residues stand in square brackets, D forms with d. hArg = N=C(N)NCCCC[C@H](N)C(=O)O; Cit = NC(=O)NCCC[C@H](N)C(=O)O; Orn = NCCC[C@H](N)C(=O)O

Target: T1, murine E^d MHC class II allele (Mus musculus, UniProt P01904+P01915)
T1 sequence (P01904 26-255): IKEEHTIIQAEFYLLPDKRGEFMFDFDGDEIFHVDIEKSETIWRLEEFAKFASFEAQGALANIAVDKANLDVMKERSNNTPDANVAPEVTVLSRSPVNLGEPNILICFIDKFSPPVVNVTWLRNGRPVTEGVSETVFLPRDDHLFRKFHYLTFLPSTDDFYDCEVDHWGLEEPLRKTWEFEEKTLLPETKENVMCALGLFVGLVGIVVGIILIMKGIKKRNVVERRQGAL
T1 sequence (P01915 27-264 limits assumed): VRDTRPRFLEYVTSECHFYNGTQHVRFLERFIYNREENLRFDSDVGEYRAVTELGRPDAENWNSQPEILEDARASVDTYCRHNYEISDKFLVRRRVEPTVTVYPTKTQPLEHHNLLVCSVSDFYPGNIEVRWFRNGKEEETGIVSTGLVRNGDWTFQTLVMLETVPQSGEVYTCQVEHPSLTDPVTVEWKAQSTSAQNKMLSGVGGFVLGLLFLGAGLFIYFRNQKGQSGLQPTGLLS
Experiment: simultaneous assay, E^d allele (A20 APC, G28.C9 T hybridoma, HEL106-116; HT-2 [3H]TdR readout)
Type: cell-based
Parameters: The A20 and CH27 B cell lymphoma lines express H-2^d and H-2^k alleles, respectively; endogenous in cells; host or cells: A20 B cell lymphoma (mitomycin C-treated or paraformaldehyde-fixed)
How it was run: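 Read-out is [3H]TdR incorporation into HT-2 indicator cells exposed to supernatant from a 24 h primary culture. That culture combined mitomycin C-treated APC (5×10^6 cells/mL, 0.025 mg/mL mitomycin C, 20 min, 37° C), peptide, effector compound and T hybridoma, all added at once.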

[1] = Table 14, AE peptide 64 μM, supernatant 1:4
[2] = Table 15, AE peptide 16 μM, supernatant 1:4
[3] = Table 16, AE peptide 4 μM, supernatant 1:8
[4] = Table 4, AE109 homolog 64 μM, supernatant 1:2
[5] = Table 7, AE peptide 64 μM, supernatant 1:4
[6] = Table 10, AE peptide 16 μM (second value), supernatant 1:2
[7] = Table 10, AE peptide 64 μM (first value), supernatant 1:2
[8] = Table 11, AE peptide 64 μM, supernatant 1:8
[9] = Table 2, AE peptide 64 μM, 0.05 μM HEL106-116, supernatant 1:2
[10] = Table 1, AE peptide 16 μM (second value), 0.4 μM HEL106-116, supernatant 1:4
[11] = Table 1, AE peptide 64 μM (first value), 0.4 μM HEL106-116, supernatant 1:4

Ac-LRLKYPK-NH2 [AE301]
Times Baseline Response, E^d [1]: 12.5 | Times Baseline Response, E^d [2]: 30.7 | Times Baseline Response, E^d [3]: 20.1

Ac-LR N KLPK-NH2 (Ac-LRNKLPK-NH2) [AE202]
Times Baseline Response, E^d (Table 5, AE peptide 64 μM, supernatant 1:4): 18.2 | Times Baseline Response, E^d [2]: 34.4

Ac-Y D MKLPKSAK-NH2 [AE135]
Times Baseline Response, E^d [4]: 1.2

Ac-LRMK D PK-NH2 (Ac-LRMKDPK-NH2) [AE230]
Times Baseline Response, E^d [5]: 0.6

Ac-LRMKLP[Cit]-NH2 [AE241]
Times Baseline Response, E^d (Table 9, AE peptide 64 μM, supernatant 1:4): 3.4 | Times Baseline Response, E^d [3]: 7.1

Ac-ARMKLPKSAK-NH2 [AE120]
Times Baseline Response, E^d [6]: 18.1 | Times Baseline Response, E^d [7]: 35.4 | Times Baseline Response, E^d [2]: 19.4

Ac-LRMK l PK-NH2 [AE164]
Times Baseline Response, E^d [8]: 17.7 | Times Baseline Response, E^d [1]: 12.9

Ac-SLRMKLPKSAK-NH2 [AE155]
Times Baseline Response, E^d [9]: 23.4

Ac-ARNKNPK-NH2 [AE346]
Times Baseline Response, E^d [2]: 1.2

Ac-Y[hArg]MKLPKSAK-NH2 [AE132]
Times Baseline Response, E^d [4]: 1.8 | Times Baseline Response, E^d [3]: 3.9

Ac-LR (mL) KyPk-NH2 [AE306]
Times Baseline Response, E^d [1]: 3.2

Ac-Y[Orn]MKLPKSAK-NH2 [AE130]
Times Baseline Response, E^d [4]: 0.9

Ac-LRMK Cit PK-NH2 (Ac-LRMK[Cit]PK-NH2; SMILES CSCC[C@H](NC(=O)[C@H](CCCNC(=N)N)NC(=O)[C@H](CC(C)C)NC(C)=O)C(=O)N[C@@H](CCCCN)C(=O)N[C@@H](CCCNC(N)=O)C(=O)N1CCC[C@H]1C(=O)N[C@@H](CCCCN)C(N)=O) [AE226]
Times Baseline Response, E^d [5]: 9.0

Ac-LRMKL p K-NH2 [AE165]
Times Baseline Response, E^d [8]: 26.6

Ac-LRM k LPK-NH2 [AE163]
Times Baseline Response, E^d [8]: 2.4

Ac-LRMK H PK-NH2 (Ac-LRMKHPK-NH2) [AE228]
Times Baseline Response, E^d [5]: 8.5

Ac-YRMKL-NH2 [AE116]
Times Baseline Response, E^d [10]: 2.1 | Times Baseline Response, E^d [11]: 7.1

Ac-QLDSLRMKLPKSAK-NH2 [AE152]
Times Baseline Response, E^d [9]: 2.3

Ac-l RMKLPK-NH2 [AE160]
Times Baseline Response, E^d [8]: 11.0

Ac-YRMKLPKSAK-NH2 [AE109]
Times Baseline Response, E^d [10]: 20.8 | Times Baseline Response, E^d [11]: 39.3 | Times Baseline Response, E^d [9]: 25.5 | Times Baseline Response, E^d [4]: 3.3 | Times Baseline Response, E^d (Table 8, AE peptide 4 μM (third), supernatant 1:8): 7.4 | Times Baseline Response, E^d (Table 8, AE peptide 16 μM (second), supernatant 1:8): 17.6, | Times Baseline Response, E^d (Table 8, AE peptide 64 μM (first), supernatant 1:8): 16.4, | Times Baseline Response, E^d [6]: 24.3 | Times Baseline Response, E^d [7]: 27.5

Ac-LR m KLPK-NH2 [AE162]
Times Baseline Response, E^d [8]: 2.2

Ac-Y F MKLPKSAK-NH2 [AE139]
Times Baseline Response, E^d [4]: 0.8

Ac-LR (mL) KYPk-NH2 [AE305]
Times Baseline Response, E^d [1]: 5.2

Ac-LRM M LPK-NH2 (Ac-LRMMLPK-NH2) [AE220]
Times Baseline Response, E^d (Table 6, AE peptide 64 μM, supernatant 1:4): 2.8 | Times Baseline Response, E^d [3]: 12.0

Ac-YRMKLP-NH2 [AE115]
Times Baseline Response, E^d [10]: 5.7 | Times Baseline Response, E^d [11]: 19.9

Ac-L[Cit]NKLPK-NH2 [AE343]
Times Baseline Response, E^d [2]: 1.2

Ac-ARMKNPK-NH2 [AE345]
Times Baseline Response, E^d [2]: 3.7

Ac-LRMK (mL) PK-NH2 [AE175]
Times Baseline Response, E^d (Table 13, AE peptide 1 μM (fourth value), supernatant 1:4): 1 | Times Baseline Response, E^d (Table 13, AE peptide 4 μM (third value), supernatant 1:4): 6 | Times Baseline Response, E^d (Table 13, AE peptide 16 μM (second value), supernatant 1:4): 36 | Times Baseline Response, E^d (Table 13, AE peptide 64 μM (first value), supernatant 1:4): 61 | Times Baseline Response, E^d [1]: 15.9

Ac-LRMK[Orn]PK-NH2 [AE225]
Times Baseline Response, E^d [5]: 10.4

Ac-LRLKWPK-NH2 [AE309]
Times Baseline Response, E^d [1]: 12.1 | Times Baseline Response, E^d [2]: 13.1 | Times Baseline Response, E^d [3]: 20.0

Ac-YRMK-NH2 [AE117]
Times Baseline Response, E^d [10]: 1.0 | Times Baseline Response, E^d [11]: 2.3

Ac-Y K MKLPKSAK-NH2 [AE134]
Times Baseline Response, E^d [4]: 0.7 | Times Baseline Response, E^d [3]: 1.2

Ac-LQLDSLRMKLPKSAK-NH2 [AE151]
Times Baseline Response, E^d [9]: 2.5

Ac-ARNKLPK-NH2 [AE344]
Times Baseline Response, E^d [2]: 7.7

Ac-LR (mL) KLPK-NH2 [AE302]
Times Baseline Response, E^d [1]: 4.5
